Data taken from publication PMC6794382.

Biological target: Drosophila melanogaster imaginal morphogenesis protein-late 2 protein (Imp-L2) (Drosophila melanogaster) (UniProt Q09024)
Test: cross-linking; Sulfo-SDA-modified ligand (about 100 μg, 10–20 nmol) incubated with recombinant Imp-L2 (76 μg, about 3 nmol) overnight at 4°C, irradiated at 365 nm for 5 min; SDS-PAGE, western blot with anti-IGF-1, tryptic digest of the excised band and LC-MS/MS (Links, StavroX)

UniProt Q09024, sequence (Q09024 26-267): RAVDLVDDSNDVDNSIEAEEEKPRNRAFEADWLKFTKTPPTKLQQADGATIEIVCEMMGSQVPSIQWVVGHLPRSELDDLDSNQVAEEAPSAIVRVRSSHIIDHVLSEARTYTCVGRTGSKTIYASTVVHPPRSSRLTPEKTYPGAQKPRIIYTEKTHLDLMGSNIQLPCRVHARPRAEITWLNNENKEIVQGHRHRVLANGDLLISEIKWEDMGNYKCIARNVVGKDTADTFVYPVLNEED

percent of Imp-L2 crosslinked: 10 to 20%
Substance: des(63-70)-IGF-1 (human IGF-1 lacking the C-terminal D domain amino acids PLKPAKSA, with an additional N-terminal Gly-1) (ligand)
